B1: GMBC646 (scFv)
scFv: GVQLVQSGAEVKKPGASVKVSCKASGYTFTSYYIHWVRQAPGQGLEWMGIINPSGGTTSYAQKFQGRVTMTRDTSTSTVYMELSSLRSEDTAMYYCARERFLRGMDVWGRGTMVTVSSGGGGSGGGGSGGGGSDIVMTQSPSTLSASVGDRVTITCRASQGISSWLAWYQQKPGRAPKVLIYKASTLESGVPSRFSGSGSGTDFTLTISSLQPEDFATYYCQQSYSTPWTFGQGTKLEIKR
B2: GMBC609 (scFv)
scFv: QVQLVESGGGLVKPGESLRLSCEASGFEFNYAWMSWVRQAPGKGLEWVGRSRSEASGGTTDYAAPLQDRFTISRDDSKNTLYLQVNSLKIEDTGVYFCKWEKSEYYGMDVWGRGTPVTVSSGGGGSGGGGSGGGGSQSVLTQPPSVSAAPGQKVTISCSGSTSNIGNNYVSWYQQHPGKAPKLMIYDVSKRPSGVPDRFSGSKSGNSASLDISGLQSEDEADYYCAAWDDSLSEFLFGTGTKLTVLG
B3: GMBC666 (scFv)
scFv: B2 scFv with Q1E, V12A, R113K, P116M
B4: GMBC655 (scFv)
scFv: EVQLVESGGGLVKPGGSLRLSCAASGFTFSSYGMSWIRQAPGKGQEWVSAISGSGGSAYYADSVKGRFTISRDNSKNTLYLQMNSLRAEDTAVYYCAKAYSSEDYWGRGTMVTVSSGGGGSGGGGSGGGGSNIQMTQSPSFLSASVGDRVTITCRASQGINNYLAWYQQKPGRAPKLLIYAASSLQSGVPSRFSGSGSGTDFTLTISSLQPDDFATYYCQQYSNYPLTFGGGTKLEIKR
B5: GMBC652 (scFv)
scFv: GVQLVQSGGVVVKPGGSLRLSCAASGFTFSDAWMNWVRQAPGKGLEWVGRIKSKGSGGTTDYAAPVKGRFTISRDDSENTLYLQMNSLKTEDTAVYYCTWDHSYYYDMAVWGRGTMVTASSGGGGSGGGGSGGGGSQSVLTQPASVSGSPGQSITISCTGTSSDVGGYNYVSWYQQHPGKAPKFMIYDVSKRPSGVSNRFSGSKSGNTASLTISGVQAEDEADYYCSSYTSASTVIFGGGTKLTVLG
B6: GMBC608 (scFv)
scFv: EVQLVQSGGGLVQPGRSLRLSCAASGFTFSDSYMTWIRQAPGEGLEFVSYISSGSSTTYYTDSVKGRFTISRDNSKNTLYLQMNSLRPEDTAVYYCARRSISSDYYSYYLDVWGKGTLVTVSSGGGGSGGGGSGGGGSSELTQDPAVSVALGQTVRITCQGDSLRSYYASWYQQKPGQAPVLVIYGKNNRPSGIPDRFSGSSSGNTASLTITGAQAEDEADYYCNSRDSSGNHVVFGGGTKLTVLG
B7: GMBC639 (scFv)
scFv: GVQLVQSGAEVKTPGASVKVSCKASGYTFTNHYMHWVRQAPGQGIEWVGVINPSGDGSSYAQTFQGRVTMTRDTSTSTVYMELRSLRSDDTAVYYCARDLFYDFWSDYYRNDQYYYMDVWGKGTLVTVSSGGGGSGGGGSGGGGSSELTQDPAVSVALGQAVRITCQGDSLRSYYASWYQQKPGQAPVLVIYGKNNRPSGIPDRFSGSSSGNTASLTITGAQAEDEADYYCNSRDSSGNHVVFGGGTKLTVLG
B8: GMBC642 (scFv)
scFv: QVQLQQSGAEVKKPGASVKVSCKASGYTFTIHYMHWVRQAPGQGLEWMGIINPGDGSTSYAQNFQGRVTMTRDTSTSTVYMELSSLRSEDTAVYYCARAGRTVTSHFDYWGRGTLATVSSGGGGSGGGGSGGGGSSELTQDPAVSVALGQTVRITCQGDSLRSYYASWYQQKPGQAPVLVIYGKNNRPSGIPDRFSGSSSGNTASLTITGAQAEDEADYYCNSRDSSGNHVVFGGGTKLTVLG
B9: GMBC681 (scFv)
scFv: QVQLVQSGGGVVQPGGSLRLSCAASGFTFSSYGMHWVRQAPGKGLEWVAFIRYDGSNKYYADSVKGRFTISRDNSKNTLYLQMNSLRAEDTAVYYCAKGGTGYFDLWGRGTLVTVSSGGGGSGGGGSGGGGSDIQMTQSPSTLSASIGDRVTITCRASEGIYHWLAWYQQKPGKAPKLLIYKASSLASGAPSRFSGSGSGTDFTLTISSLQPDDFATYYCQQYSNYPLTFGGGTKLEIKR
B10: GMBC673 (scFv)
scFv: EVQLVESGGGLVQTGGSLRLSCAASGFPIGSHWMSWVRQSPGKGLEWVASIKQDGREKHFVDSVKGRFGISRDNAKDSLYLQMNSLRIEDTAVYYCARETYGGYYYYFMDVWGRGTLVTVSSGGGGSGGGGSGGGGSSELTQDPAVSVALGQTVRITCQGDSLRSYYASWYQQKPGQAPVLVIYGKNNRPSGIPDRFSGSSSGNTASLTITGAQAEDEADYYCQTWGPGIRVFGGGTKLTVLG
B11: GMBC687 (scFv)
scFv: QVQLVQSGAEVKKPGSSVKVSCKAPGDTFSNYIFNWVRQAPGQGLEWMGGIIPKFGTVNDAHKFQDRVTIAADESTNTASMELSSLTSEDTAVYYCACEPIPKDYGDVNGLEIWGKGTMVTVSSGGGGSGGGGSGGGGSDIQMTQSPSTLSASIGDRVTITCRASEGIYHWLAWYQQKPGKAPKLLIYKASSLASGAPSRFSGSGSGTDFTLTISSLQPDDFATYYCQQYSNYPLTFGGGTKLEIKR
B12: GMBC669 (scFv)
scFv: QVQLVESGGALVKPGGSLRLSCAASGFTFSDAWMNWVRQAPGKGLEWVGRIKSKGSGGTIDYAAPVKDRFTISRDDSKNTLYLQMNSLKTEDTALYYCTWDWDFYYGMNVWGQGTLVTVSSGGGGSGGGGSGGGGSQSVLTQPPSASGSPGQSVTISCTGTSSDVGGYNYVSWYQQHPGKAPKFMIYDVSKRPSGVSNRFSGSKSGNTASLTISGVQAEDEADYYCSSYTSASTVIFGGGTKLTVLG
B13: GMBC678 (scFv)
scFv: B12 scFv with Q1E, A10G
B14: GMBC641 (scFv)
scFv: EVQLVESGGGVVRPGRSLRLSCAASGFSFSSYGMHWVRQAPGKGLEWVSAISGSGGSTYYADSVKGRFTISRDNSKNTLYLQMNSLRAEDTAVYFCAKGGDRSFRAFDFWGQGTMVTVSSGGGGSGGGGSGGGGSSELTQDPAVSVALGQTVRITCQGDSLRSYYASWYQQKPGQAPVLVIYGKNNRPSGIPDRFSGSSSGNTASLTITGAQAEDEADYYCNSRDSSGNHVVFGGGTKLTVLG
B15: GMBC668 (scFv)
scFv: EVQLVESGGGLVKPGGSLRLSCAASGFTFSDAWMNWVRQAPGKGLEWVGRIKSKGSGGTTDYAAPVKGRFTISRDDSENTLYLQMNSLKTEDTAVYYCTWDHSYYYDMAVWGRGTLVTVSSGGGGSGGGGSGGGGSSELTQDPAVSVALGQTVRITCQGDSLRSYYASWYQQKPGQAPVLVIYGKNNRPSGIPDRFSGSSSGNTASLTITGAQAEDEADYYCNSRDSSGNHVVFGGGTKLTVLG
B16: GMBC682 (scFv)
scFv: QVQLVESGGGVVKPGGSLRLSCAASGFKFSDAWMNWVRQAPGKGLEWVGRIKSKGSGGTIDYAAPVKDRFTISRDDSKNTLYLQMNSLKTEDTALYYCTWDWDFYYGMNVWGRGTLVTVSSGGGGSGGGGSGGGGSSELTQDPAVSVALGQTVRITCQGDSLRSYYASWYQQKPGQAPVLVIYGKNNRPSGIPDRFSGSSSGNTASLTITGAQAEDEADYYCNSRDSSGNHVVFGGGTKLTVLG
B17: GMBC662 (scFv)
scFv: GVQLVQSGAEVKKPGSSVKVSCKASGGTFSSYTISWVRQAPGQGLEWMGRIIPILGIANYAQKFQGRVTITADKSTSTAYMELSSLRSEDTAVYYCAREKLRDFQHWGQGTLVTVSSGGGGSGGGGSGGGGSQSVLTQPASVSGSPGQSITISCTGTSSDVGGYNYVSWYQQHPGKAPKLMIYEGSKRPSGISNRFSGSKSGNTASLTISRLQAEDEADYYCSSYTTRSTRVFGGGTKLTVLG
B18: GMBC606 (scFv)
scFv: EVQLVQSGGGVVQPGGSLRLSCAASGFTFSSYGMHWVRQAPGKGLEWVAFIRYDGSNKYYADSVKGRFTISRDNSKNTLYLQMNSLRAEDTAVYYCAKSSSFANAFDIWGQGTTVTVSSGGGGSGGGGSGGGGSSELTQDPAVSVALGQTVRITCQGDSLRSYYASWYQQKPGQAPVLVIYGKNNRPSGIPDRFSGSSSGNTASLTITGAQAEDEADYYCNSRDSSGNHVVFGGGTKLTVLG
B19: GMBC725 (scFv)
scFv: B18 scFv with S7T, R52L, F102S, N104S, G110R, G112R
B20: GMBC683 (scFv)
scFv: EVQLVESGGGLVQPGRSLRLSCAASGFTFSSYGMHWVRQAPGKGLEWVAVISYDGSNKYYADSVKGRFTISRDNSKNTLYLQMNSLRAEDTAVYYCAKRAAAGTLDYWGQGTTVTVSSGGGGSGGGGSGGGGSSELTQDPAVSVALGQTVRITCQGDSLRSYYASWYQQKPGQAPVLVIYGKNNRPSGIPDRFSGSSSGNTASLTITGAQAEDEADYYCNSRDSSGNHVVFGGGTKLTVLG

Substitutions are numbered along the chain they refer to.

In this experiment the target is T1, flag-tagged soluble TL3 (amino acids 105-251 of SEQ ID NO:234) (Homo sapiens (Human), UniProt O75888 105-250).
T1 construct: Heterologous flag-tagged control protein, immobilized in the ELISA; also called flagged tagged TL-3; not shown: Flag tag
T1 sequence: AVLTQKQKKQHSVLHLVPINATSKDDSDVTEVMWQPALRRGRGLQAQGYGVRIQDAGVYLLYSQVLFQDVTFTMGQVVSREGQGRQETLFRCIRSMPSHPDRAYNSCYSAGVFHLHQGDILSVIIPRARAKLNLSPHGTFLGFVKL
As to the kind of experiment: phage ELISA on immobilized flag-tagged soluble TL3. The protocol: The individual phage isolates in the panel of phage, each phage expressing a unique scFv that bound to flag-tagged GMAD, were tested to ensure specificity for GMAD using an ELISA assay. The scFvs were tested in an ELISA for their ability to bind a heterologous flag-tagged protein, in this case—immobilized soluble TL3 (amino acids 105-251 of SEQ ID NO:234, GenBank Accesion Number NP_{—}003799, also described in International Patent Application Publication Number WO97/33902 and WO2001/96528 which are herein incorporated by reference in their entireties).
Take B1: the binding result was “no binding”.

As for B2, the binding result is given as “no binding”.

As for B3, the binding result is given as “no binding”.

As to B4, the binding result was “no binding”.

Consider B5, for which the binding result is “no binding”.

With B6, the binding result is on record as “no binding”.

As to B7, the binding result is listed as “no binding”.

Regarding B8, the binding result is “no binding”.

Consider B9, for which the binding result is recorded as “no binding”.

Take B10: the binding result was “no binding”.

Turning to B11, the binding result is listed as “no binding”.

Consider B12, for which the binding result is listed as “no binding”.

With B13, the binding result is on record as “no binding”.

In the case of B14, the binding result was “no binding”.

B15: the binding result is listed as “no binding”.

In the case of B16, the binding result is recorded as “no binding”.

On to B17, for which the binding result is listed as “no binding”.

Consider B18, for which the binding result was “no binding”.

Consider B19, for which the binding result is “no binding”.

For the molecule B20, the binding result is listed as “no binding”.
